The term Kd denotes the equilibrium constant for the complex coming apart. Low values mean a tighter complex, high ones a looser complex.

The target of series [1] is MBD2 MBD R188K (Homo sapiens, UniProt Q9UBB5 143-220, R188K). In words: ITC.
Series [2] deals with MBD2 MBD R166K/R188K (Homo sapiens, UniProt Q9UBB5 143-220, R166K;R188K). In words: ITC. (In general: Isothermal titration calorimetry measures the heat released or taken up as one component is titrated into another.)
Sequence of MBD2 MBD R166K/R188K (Q9UBB5 143-220 R166K/R188K): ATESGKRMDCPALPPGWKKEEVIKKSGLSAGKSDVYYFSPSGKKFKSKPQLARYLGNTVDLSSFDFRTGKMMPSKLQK

Sequence of MBD2 MBD R188K (Q9UBB5 143-220 R188K): as the sequence (Q9UBB5 143-220 R166K/R188K) above, with K24R counted along it

B1: mCG dsDNA 12mer (dsDNA)
DNA 1: GCCAACGTTGGC
DNA 2: GCCAACGTTGGC
modifications: 5-methyl-C at position 6 of both strands
On to B1, for which the Kd in series [1] was 7.5 ± 0.4 µM. The binding result in series [2] is given as “no binding”.

These data come from PMC8600091.
